The target of data set [1] is T1, Thermus thermophilus BHBDh (TtBHBDh), wild type, SEQ ID NO: 3 (Thermus thermophilus, UniProt Q5SKF0).
T1 sequence (Q5SKF0 1-251): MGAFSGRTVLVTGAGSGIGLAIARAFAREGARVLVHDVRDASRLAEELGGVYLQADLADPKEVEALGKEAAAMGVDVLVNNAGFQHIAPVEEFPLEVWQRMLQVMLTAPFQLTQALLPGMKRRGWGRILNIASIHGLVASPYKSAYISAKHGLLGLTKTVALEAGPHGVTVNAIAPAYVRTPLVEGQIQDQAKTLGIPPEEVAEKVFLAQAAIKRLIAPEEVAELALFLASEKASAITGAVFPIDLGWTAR
In words: BHB concentration-dependent BHBDh activity of TtBHBDh (NADH detection, absorbance at 340 nm). The note with it: 1 mM NAD+, 10 mM HEPES pH 7.8, 0 mM MgCl2, 0-50 mM BHB, room temperature; read-out: Km toward BHB. It is filed as biochemical. The procedure: The activity was measured using NADH detection via absorbance at 340 nm, at room temperature. The measurement was done in a solution with 1 mM NAD^+, 10 mM HEPES at pH 7.8, and 0 mM MgCl2·6 H2O, from 0-50 mM BHB.

Substrate in data set [2]: C[C@@H](O)CC(=O)O
Put plainly: NAD dependent BHB dehydrogenase activity of AfBHBDh. It is filed as biochemical, Alcaligenes faecalis.

Broadly, the Km is the concentration of substrate that gives half-maximal velocity. As usually defined, the Vmax is the top rate of the reaction or transport when substrate is in excess.

Turning to `C[C@@H](O)CC(=O)O` [BHB, R-3-hydroxybutyrate], the Km in data set [1] came to 359 µM.

B1: (Alcaligenes faecalis) (protein)
chain: MLKGKKAVVTGSTSGIGLAMATELAKAGADVVINGFGQPEDIERERSTLESKFGVKAYYLNADLSDAQATRDFIAKAAEALGGLDILVNNAGIQHTAPIEEFPVDKWNAIIALNLSAVFHGTAAALPIMQKQGWGRIINIASAHGLVASVNKSAYVAAKHGVVGLTKVTALENAGKGITCNAICPGWVRTPLVEKQIEAISQQKGIDIEAAARELLAEKQPSLQFVTPEQLGGAAVFLSSAAADQMTGTTLSLDGGWTAR
As to B1, in data set [2], the Km was 1130 µM and the Vmax stood at 223 µmol/min/mg.

The record behind these values is patent publication US20230383265A1, “D-beta-HYDROXYBUTYRATE DEHYDROGENASES (BHBDhs) AND THEIR USE FOR KETONE MONITORING” (The University of North Carolina at Chapel Hill, priority 2022, published 2023).
